T1: BST2 peptide on HLA-A*02:01 (human)
T1 peptide: LLLGIGILVL

T2: IMP2 peptide on HLA-A*02:01 (human)
T2 peptide: NLSALGIFST


What was measured:
[1] = molecular target: T1, BST2 peptide on HLA-A*02:01; assay: multimer staining
[2] = molecular target: T2, IMP2 peptide on HLA-A*02:01; assay: multimer staining
[3] = molecular target: T2, IMP2 peptide on HLA-A*02:01; assay: stated without data

binding result [1] | binding result [2] | binding result [3] | Binder
recognises | recognises |  | MEL25 (TCR) alpha TRAV8-6 TRAJ47 CDR3: CAVSDNGNKLVF beta TRBV12-4 TRBJ2-7 CDR3: CASSWAGPVEQYF
recognises | recognises |  | MEL8 (TCR, V domains shown) Valpha: QKEVEQNSGPLSVPEGAIASLNCTYSDRGSQSFFWYRQYSGKSPELIMSIYSNGDKEDGRFTAQLNKASQYVSLLIRDSQPSDSATYLCAVQKLVFGTGTRLLVSP Vbeta: NAGVTQTPKFQVLKTGQSMTLQCAQDMNHEYMSWYRQDPGMGLRLIHYSVGAGITDQGEVPNGYNVSRSTTEDFPLRLLSAAPSQTSVYFCASSYSFTEATYEQYFGPGTRLTVT
 |  | recognises | MEL58 (TCR) alpha TRAV23DV6 TRAJ54 CDR3: CAARGAQKLVF beta TRBV6-5 TRBJ1-6 CDR3: CASSYVGLGSPLHF

Second part, the binder before the results:

Binder | binding result [1] | binding result [2] | binding result [3]
CLL9 (TCR) alpha TRAV12-2*01 TRAJ9 CDR3: CAVGAGGFKTIF beta TRBV2*02 TRBJ2-7 CDR3: CASSESPLSGNEQYF | no recognition | recognises | 
MEL56 (TCR) alpha TRAV12-3 TRAJ35 CDR3: CAMSVGFGNVLHC beta TRBV27 TRBJ2-7 CDR3: CASSLGLAGNEQYF |  |  | recognises
MEL11 (TCR) alpha TRAV12-2*01 TRAJ30 CDR3: CAVNYEDDKIIF beta TRBV9 TRBJ2-7 CDR3: CASSVGVQGSWEQYF | recognises | recognises | 
